From paper PMC6426608
Numbering of substitutions follows the chain as printed.

Experiments:
Test in all cases: EMSA
Details in all cases: EMSA: 40 ng probe in 20 ul of 10 mM Tris-HCl pH 7.4, 50 mM KCl, 5 mM MgCl2, 10% glycerol; room temperature 20 min; 6% PAGE, DNA dye
[1] = system: T1, RhpR (Pseudomonas savastanoi pv. phaseolicola 1448A), ORF:976030cf
T1 sequence: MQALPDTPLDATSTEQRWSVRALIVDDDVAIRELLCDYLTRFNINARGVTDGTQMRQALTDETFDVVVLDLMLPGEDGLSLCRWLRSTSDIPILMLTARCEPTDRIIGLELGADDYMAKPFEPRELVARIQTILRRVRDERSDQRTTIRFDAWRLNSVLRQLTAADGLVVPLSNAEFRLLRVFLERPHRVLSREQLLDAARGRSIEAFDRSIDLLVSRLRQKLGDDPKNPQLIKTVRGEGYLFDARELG

[2] = system: T2, RhpR D70A D70A (Pseudomonas savastanoi pv. phaseolicola 1448A), ORF:976030cf
T2 sequence: T1 sequence with D70A

[3] = system: T3, RhpR D70E D70E (Pseudomonas savastanoi pv. phaseolicola 1448A), ORF:976030cf
T3 sequence: T1 sequence with D70E

Row | Sequence | binding [1] | binding [2] | binding [3]
1 | TTCTCGAGTGAAATATCGACCTGAGGAAATTGCCCCTTTGATAATAGGACTCGCATGTATAATACCGGCCAAAACCGGACCAGCCGCCATTAACTTCTCTTCATGTAACGGCCATATCACCCCCGACTTGAACCGCCTTTTACTGCGTATATTTCGCGACGCTCCAGCACTGGAAACGCCCGGGATCCAA (double strand) [ccmA-ΔIR promoter] | no binding | – | –
2 | TTCTCGAGTGAAATATCGACCTGAGGAAATTGCCCCTTTGATAATAGGACTCGCATGTATAATACCGGCCAAAACCGGACCAGCCGCCATTAACTTCTCTTCATGTAACGGCCATATCACCCCCGACTTGAACCGCCTTTTACTGCGTATGTGTCTGTTTTGGTACATTTCGCGACGCTCCAGCACTGGAAACGCCCGGGATCCAA (double strand) [ccmA promoter] | binds | – | –
3 | TTGGATCCAACACCCTATCCACTGAAGGTCTTGGCGGGCAAAAAACAAGCCGAGGATTATACCCGAGCTATGACCCTCGAGAA (double strand) [rpoD promoter] | binds | – | –
4 | TTGGATCCGACGGACCCTCGTGGGGTGATAGCCCAAGCATCCGCCGTGTGCGAGGTACAACCATTGACCTGGCGCAATGAAGCAGCCTGATAGCAGACCGTTGGTCGAAGACTCTTCGGTCTACGTGTGCAGGGTGGCTGTTCTCGAGAA (double strand) [adhB-ΔIR promoter] | no binding | – | –
5 | TTGGATCCGACGGACCCTCGTGGGTAGCTCGGATGCTTGGGTGATAGCCCAAGCATCCGCCGTGTGCGAGGTACAACCATTGACCTGGCGCAATGAAGCAGCCTGATAGCAGACCGTTGGTCGAAGACTCTTCGGTCTACGTGTGCAGGGTGGCTGTTCTCGAGAA (double strand) [adhB promoter] | binds | – | –
6 | TTGGATCCGGAAACACCAGATGCATGAGCCGACGACGGTCATCCGTAAAAACCATGACCAAAGGTAACAAGTGTGCTGCTGCATTGTTGCAAAGTTCATACCTTTTTGGCAGACCCTTTGCCTGTCAGATGACATCCATGTGACGTGGGGCACTACACGGCTGCCAGACGGGTCAGATCCAGGTGTGTCGCGAGACCGCCAAGGTGAATGAGCAGGGCTCGGCTATGCTTGCTCGCGGCGTTACATATTCTTCCCCCACTGAACAGGTGACAGTCCTCGAGAA (double strand) [PSPPH_2590 promoter] | – | binds more weakly | binds
7 | TTGGATCCGGAAACACCAGATGCATGAGCCGACGACGGTCATCCGTAAAAACCATGACCAAAGTGCATTGTTGCAAAGTTCATACCTTTTTGGCAGACCCTTTGCCTGTCAGATGACATCCATGTGACGTGGGGCACTACACGGCTGCCAGACGGGTCAGATCCAGGTGTGTCGCGAGACCGCCAAGGTGAATGAGCAGGGCTCGGCTATGCTTGCTCGCGGCGTTACATATTCTTCCCCCACTGAACAGGTGACAGTCCTCGAGAA (double strand) [PSPPH_2590-p-ΔIR] | – | – | no binding
